For this test, the target named is T1, PYR1 (Arabidopsis thaliana, UniProt O49686).
T1 construct: expressed in transfected cells; host or cells: S. cerevisiae strain Y190
T1 sequence (O49686 1-191): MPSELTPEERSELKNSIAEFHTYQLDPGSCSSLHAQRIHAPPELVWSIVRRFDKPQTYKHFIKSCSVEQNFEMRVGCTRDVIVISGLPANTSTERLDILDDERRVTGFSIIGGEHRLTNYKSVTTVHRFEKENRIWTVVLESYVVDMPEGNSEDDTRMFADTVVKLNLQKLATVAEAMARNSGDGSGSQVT
Nature of the test: Yeast two hybrid of pACT-HAB1 site saturation mutants with pBD-PYR1 on 10 μM ABA, β-galactosidase staining. The class given is cell-based. More on the design: key: x: Mutations in HAB1 that disrupt HAB1 interaction with PYR1. The conditions noted are these: S. cerevisiae Y190, 10 μM ABA; dead = lack of detectable staining in comparison to wild type control. The text has this: To systematically define mutations in HAB1 that disrupt its binding to PYR1, we used site saturation mutagenesis to create a collection all possible single amino acid substitutions in 20 residues lining the PYR1 binding interface, and then assayed the ability of each mutant to bind PYR1 using the yeast two hybrid assay described above. We targeted the following residues for mutagenesis: R199, 5200, E201, E203, H245, G246, G247, S322, E323, T324, K381, I383, Q384, W385, Q386, R389, F391, G392, V393, and Y404. To create the collection of mutations, mutagenic “NNK” site directed mutagenesis primers were synthesized for each of the 20 positions and the primers used in QuickChange site-directed mutagenesis reactions using a previously described pACT-HAB1 template (Park et al., 2009). We note that this clone uses a HAB1 cDNA lacking its three N-terminal amino acids. The reaction products were digested with DpnI, and transformed into competent Escherichia coli DH5α cells and plasmid DNA for 96 colonies per site was isolated using Bioneer AccuPrep® Plasmid Mini Extraction Kit (Alameda, Calif.) and sequenced to identify mutants. This process identified most of the 19 desired mutations per target site; the remaining mutations were constructed directly using specific mutagenic primers. To interrogate the effects of the mutations on PYR1-HAB1 interactions, the mutant clones were individually transformed into S. cerevisiae strain Y190 containing pBD-PYR1 (Park et al., 2009). Yeast transformants were selected for the presence of plasmids on selective SD (-Leu,-Trp) plates and then spotted onto SD (-Leu,-Trp) agar plates supplemented with 10 μM ABA. After incubating the test plates at 30° C. for two days, the colonies were lysed with chloroform and stained to reveal […] expression levels. “Dead” mutants were defined by lack of detectable staining in comparison to a wild type pBD-PYR1/pACT-HAB1 control. This screening effort defined 163 mutations that disrupt the ABA-induced PYR1/HAB1 interaction (Table 2).

Substitutions are numbered along the chain they refer to. Names may count otherwise.

B1: I383R: HAB1 mutant (protein, UniProt Q9CAJ0 23-511, looked up, variant I383R)
Protein phosphatase 2C 16: SPVEITQLKNVTDAADLLSDSENQSFCNGGTECTMEDVSELEEVGEQDLLKTLSDTRSGSSNVFDEDDVLSVVEDNSAVISEGLLVVDAGSELSLSNTAMEIDNGRVLATAIIVGESSIEQVPTAEVLIAGVNQDTNTSEVVIRLPDENSNHLVKGRSVYELDCIPLWGTVSIQGNRSEMEDAFAVSPHFLKLPIKMLMGDHEGMSPSLTHLTGHFFGVYDGHGGHKVADYCRDRLHFALAEEIERIKDELCKRNTGEGRQVQWDKVFTSCFLTVDGEIEGKIGRAVVGSSDKVLEAVASETVGSTAVVALVCSSHIVVSNCGDSRAVLFRGKEAMPLSVDHKPDREDEYARIENAGGKVRQWQGARVFGVLAMSRSIGDRYLKPYVIPEPEVTFMPRSREDECLILASDGLWDVMNNQEVCEIARRRILMWHKKNGAPPLAERGKGIDPACQAAADYLSMLALQKGSKDNISIIVIDLKAQRKFKTRT
With B1, the “Mutations in HAB1 that disrupt HAB1 interaction with PYR1” value (“Mutations” for short) is on record as “x”.

B2: W385I: HAB1 mutant (protein, UniProt Q9CAJ0 23-511, looked up, variant W385I)
Protein phosphatase 2C 16: B1 Protein phosphatase 2C 16 with R361I, W363I
On to B2, for which the “Mutations” value is recorded as “x”.

B3: I383H: HAB1 mutant (protein, UniProt Q9CAJ0 23-511, looked up, variant I383H)
Protein phosphatase 2C 16: B1 Protein phosphatase 2C 16 with R361H
With B3, the “Mutations” value is listed as “x”.

B4: W385C: HAB1 mutant (protein, UniProt Q9CAJ0 23-511, looked up, variant W385C)
Protein phosphatase 2C 16: B1 Protein phosphatase 2C 16 with R361I, W363C
In the case of B4, the “Mutations” value was “x”.

B5: I383K: HAB1 mutant (protein, UniProt Q9CAJ0 23-511, looked up, variant I383K)
Protein phosphatase 2C 16: B1 Protein phosphatase 2C 16 with R361K
On to B5, for which the “Mutations” value was “x”.

B6: W385S: HAB1 mutant (protein, UniProt Q9CAJ0 23-511, looked up, variant W385S)
Protein phosphatase 2C 16: B1 Protein phosphatase 2C 16 with R361I, W363S
As for B6, the “Mutations” value is on record as “x”.

B7: I383T: HAB1 mutant (protein, UniProt Q9CAJ0 23-511, looked up, variant I383T)
Protein phosphatase 2C 16: B1 Protein phosphatase 2C 16 with R361T
As for B7, the “Mutations” value is listed as “x”.

B8: W385Q: HAB1 mutant (protein, UniProt Q9CAJ0 23-511, looked up, variant W385Q)
Protein phosphatase 2C 16: B1 Protein phosphatase 2C 16 with R361I, W363Q
Take B8: the “Mutations” value is “x”.

B9: I383W: HAB1 mutant (protein, UniProt Q9CAJ0 23-511, looked up, variant I383W)
Protein phosphatase 2C 16: B1 Protein phosphatase 2C 16 with R361W
For the molecule B9, the “Mutations” value is “x”.

B10: W385P: HAB1 mutant (protein, UniProt Q9CAJ0 23-511, looked up, variant W385P)
Protein phosphatase 2C 16: B1 Protein phosphatase 2C 16 with R361I, W363P
Consider B10, for which the “Mutations” value is “x”.

B11: W385R: HAB1 mutant (protein, UniProt Q9CAJ0 23-511, looked up, variant W385R)
Protein phosphatase 2C 16: B1 Protein phosphatase 2C 16 with R361I, W363R
B11: the “Mutations” value is “x”.

B12: W385V: HAB1 mutant (protein, UniProt Q9CAJ0 23-511, looked up, variant W385V)
Protein phosphatase 2C 16: B1 Protein phosphatase 2C 16 with R361I, W363V
For the molecule B12, the “Mutations” value was “x”.

B13: W385E: HAB1 mutant (protein, UniProt Q9CAJ0 23-511, looked up, variant W385E)
Protein phosphatase 2C 16: B1 Protein phosphatase 2C 16 with R361I, W363E
With B13, the “Mutations” value is “x”.

B14: W385Y: HAB1 mutant (protein, UniProt Q9CAJ0 23-511, looked up, variant W385Y)
Protein phosphatase 2C 16: B1 Protein phosphatase 2C 16 with R361I, W363Y
As to B14, the “Mutations” value is given as “x”.

B15: W385M: HAB1 mutant (protein, UniProt Q9CAJ0 23-511, looked up, variant W385M)
Protein phosphatase 2C 16: B1 Protein phosphatase 2C 16 with R361I, W363M
On to B15, for which the “Mutations” value is reported as “x”.

B16: W385T: HAB1 mutant (protein, UniProt Q9CAJ0 23-511, looked up, variant W385T)
Protein phosphatase 2C 16: B1 Protein phosphatase 2C 16 with R361I, W363T
Regarding B16, the “Mutations” value is given as “x”.

B17: W385G: HAB1 mutant (protein, UniProt Q9CAJ0 23-511, looked up, variant W385G)
Protein phosphatase 2C 16: B1 Protein phosphatase 2C 16 with R361I, W363G
B17: the “Mutations” value was “x”.

B18: W385H: HAB1 mutant (protein, UniProt Q9CAJ0 23-511, looked up, variant W385H)
Protein phosphatase 2C 16: B1 Protein phosphatase 2C 16 with R361I, W363H
Take B18: the “Mutations” value is listed as “x”.

B19: W385A: HAB1 mutant (protein, UniProt Q9CAJ0 23-511, looked up, variant W385A)
Protein phosphatase 2C 16: B1 Protein phosphatase 2C 16 with R361I, W363A
Turning to B19, the “Mutations” value was “x”.

B20: I383E: HAB1 mutant (protein, UniProt Q9CAJ0 23-511, looked up, variant I383E)
Protein phosphatase 2C 16: B1 Protein phosphatase 2C 16 with R361E
Take B20: the “Mutations” value is on record as “x”.

B21: W385L: HAB1 mutant (protein, UniProt Q9CAJ0 23-511, looked up, variant W385L)
Protein phosphatase 2C 16: B1 Protein phosphatase 2C 16 with R361I, W363L
As to B21, the “Mutations” value is recorded as “x”.

B22: W385D: HAB1 mutant (protein, UniProt Q9CAJ0 23-511, looked up, variant W385D)
Protein phosphatase 2C 16: B1 Protein phosphatase 2C 16 with R361I, W363D
Take B22: the “Mutations” value was “x”.

B23: I383Y: HAB1 mutant (protein, UniProt Q9CAJ0 23-511, looked up, variant I383Y)
Protein phosphatase 2C 16: B1 Protein phosphatase 2C 16 with R361Y
Consider B23, for which the “Mutations” value was “x”.

B24: W385F: HAB1 mutant (protein, UniProt Q9CAJ0 23-511, looked up, variant W385F)
Protein phosphatase 2C 16: B1 Protein phosphatase 2C 16 with R361I, W363F
Regarding B24, the “Mutations” value is listed as “x”.

B25: I383D: HAB1 mutant (protein, UniProt Q9CAJ0 23-511, looked up, variant I383D)
Protein phosphatase 2C 16: B1 Protein phosphatase 2C 16 with R361D
For B25, the “Mutations” value is on record as “x”.

B26: W385N: HAB1 mutant (protein, UniProt Q9CAJ0 23-511, looked up, variant W385N)
Protein phosphatase 2C 16: B1 Protein phosphatase 2C 16 with R361I, W363N
Take B26: the “Mutations” value was “x”.

B27: I383S: HAB1 mutant (protein, UniProt Q9CAJ0 23-511, looked up, variant I383S)
Protein phosphatase 2C 16: B1 Protein phosphatase 2C 16 with R361S
In the case of B27, the “Mutations” value is “x”.

B28: I383G: HAB1 mutant (protein, listed as Arabidopsis thaliana)
chain: MEEMTPAVAMTLSLAANTMCESSPVEITQLKNVTDAADLLSDSENQSFCNGGTECTMEDVSELEEVGEQDLLKTLSDTRSGSSNVFDEDDVLSVVEDNSAVISEGLLVVDAGSELSLSNTAMEIDNGRVLATAIIVGESSIEQVPTAEVLIAGVNQDTNTSEVVIRLPDENSNHLVKGRSVYELDCIPLWGTVSIQGNRSEMEDAFAVSPHFLKLPIKMLMGDHEGMSPSLTHLTGHFFGVYDGHGGHKVADYCRDRLHFALAEEIERIKDELCKRNTGEGRQVQWDKVFTSCFLTVDGEIEGKIGRAVVGSSDKVLEAVASETVGSTAVVALVCSSHIVVSNCGDSRAVLFRGKEAMPLSVDHKPDREDEYARIENAGGKVGQWQGARVFGVLAMSRSIGDRYLKPYVIPEPEVTFMPRSREDECLILASDGLWDVMNNQEVCEIARRRILMWHKKNGAPPLAERGKGIDPACQAAADYLSMLALQKGSKDNISIIVIDLKAQRKFKTRT
For the molecule B28, the “Mutations” value was “x”.

Values taken from patent US10919943B2, “Mutant proteins enabling agrochemical control of plant gene expression” (The Regents of the University of California, priority 2016, dated 2021).
